The values below come from paper PMC12154632.

Assay [1] concerns the target paused elongation complex PEC-161 (E. coli RNAP stalled at C161 of the Bsu-GTR template) (E. coli). Description: single-molecule fluorescence colocalisation.
Assay [2] has as its target paused elongation complex PEC-225 (E. coli RNAP stalled at U225 of the Bsu-GTR template) (E. coli). Description: single-molecule fluorescence colocalisation.

For orientation: koff means the rate constant with which the complex falls apart. High values mean fast dissociation, low ones slow dissociation. Broadly, the kon is the rate constant with which the complex forms.

Sequence of paused elongation complex PEC-161 (E. coli RNAP stalled at C161 of the Bsu-GTR template) (E. coli) (A1AGI6 whole entry, chain 1 of 4): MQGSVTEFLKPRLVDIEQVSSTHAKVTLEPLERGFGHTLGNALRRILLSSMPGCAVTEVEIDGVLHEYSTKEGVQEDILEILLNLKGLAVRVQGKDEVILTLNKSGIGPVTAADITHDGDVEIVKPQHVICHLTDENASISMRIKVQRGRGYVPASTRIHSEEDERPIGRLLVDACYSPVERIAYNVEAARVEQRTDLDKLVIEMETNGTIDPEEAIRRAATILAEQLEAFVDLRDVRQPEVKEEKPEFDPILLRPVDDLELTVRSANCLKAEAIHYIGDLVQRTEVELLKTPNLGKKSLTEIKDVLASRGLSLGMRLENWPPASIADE
Sequence of paused elongation complex PEC-161 (E. coli RNAP stalled at C161 of the Bsu-GTR template) (E. coli) (A1AIF9 whole entry, chain 2 of 4, further chain): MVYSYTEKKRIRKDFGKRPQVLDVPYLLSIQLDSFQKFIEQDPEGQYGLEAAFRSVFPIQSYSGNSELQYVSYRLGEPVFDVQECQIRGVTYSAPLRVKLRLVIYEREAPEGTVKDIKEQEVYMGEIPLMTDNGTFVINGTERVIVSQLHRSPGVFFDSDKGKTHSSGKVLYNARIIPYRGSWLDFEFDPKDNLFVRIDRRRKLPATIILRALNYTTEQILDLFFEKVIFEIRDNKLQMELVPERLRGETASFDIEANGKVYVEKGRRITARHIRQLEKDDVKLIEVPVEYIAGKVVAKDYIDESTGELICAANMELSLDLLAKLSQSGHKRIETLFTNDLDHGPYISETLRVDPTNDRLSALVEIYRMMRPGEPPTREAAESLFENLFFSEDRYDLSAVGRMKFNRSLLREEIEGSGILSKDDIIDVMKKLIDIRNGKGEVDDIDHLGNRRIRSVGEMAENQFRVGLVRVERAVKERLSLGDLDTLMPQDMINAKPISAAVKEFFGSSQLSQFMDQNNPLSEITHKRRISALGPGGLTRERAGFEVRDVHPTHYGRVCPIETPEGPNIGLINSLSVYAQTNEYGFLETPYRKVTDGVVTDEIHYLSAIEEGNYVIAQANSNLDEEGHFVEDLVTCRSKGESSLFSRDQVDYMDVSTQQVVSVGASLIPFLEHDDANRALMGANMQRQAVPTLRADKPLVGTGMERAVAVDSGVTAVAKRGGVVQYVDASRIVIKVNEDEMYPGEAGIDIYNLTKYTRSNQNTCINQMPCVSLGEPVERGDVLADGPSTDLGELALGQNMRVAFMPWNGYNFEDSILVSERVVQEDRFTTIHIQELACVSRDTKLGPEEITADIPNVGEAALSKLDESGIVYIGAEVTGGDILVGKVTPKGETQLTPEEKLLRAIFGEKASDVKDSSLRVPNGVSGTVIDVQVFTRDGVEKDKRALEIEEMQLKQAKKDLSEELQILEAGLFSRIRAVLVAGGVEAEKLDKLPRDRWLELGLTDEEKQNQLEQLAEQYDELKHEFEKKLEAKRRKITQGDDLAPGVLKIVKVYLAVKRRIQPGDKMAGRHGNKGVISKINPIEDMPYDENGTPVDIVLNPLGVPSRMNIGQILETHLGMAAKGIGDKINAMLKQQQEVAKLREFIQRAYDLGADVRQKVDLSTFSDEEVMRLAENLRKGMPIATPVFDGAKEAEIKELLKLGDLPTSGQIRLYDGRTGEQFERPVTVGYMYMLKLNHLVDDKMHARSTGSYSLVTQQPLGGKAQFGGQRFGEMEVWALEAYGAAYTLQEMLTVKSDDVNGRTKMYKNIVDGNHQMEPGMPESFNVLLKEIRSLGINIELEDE
Sequence of paused elongation complex PEC-161 (E. coli RNAP stalled at C161 of the Bsu-GTR template) (E. coli) (A7ZUK2 whole entry, chain 3 of 4, further chain): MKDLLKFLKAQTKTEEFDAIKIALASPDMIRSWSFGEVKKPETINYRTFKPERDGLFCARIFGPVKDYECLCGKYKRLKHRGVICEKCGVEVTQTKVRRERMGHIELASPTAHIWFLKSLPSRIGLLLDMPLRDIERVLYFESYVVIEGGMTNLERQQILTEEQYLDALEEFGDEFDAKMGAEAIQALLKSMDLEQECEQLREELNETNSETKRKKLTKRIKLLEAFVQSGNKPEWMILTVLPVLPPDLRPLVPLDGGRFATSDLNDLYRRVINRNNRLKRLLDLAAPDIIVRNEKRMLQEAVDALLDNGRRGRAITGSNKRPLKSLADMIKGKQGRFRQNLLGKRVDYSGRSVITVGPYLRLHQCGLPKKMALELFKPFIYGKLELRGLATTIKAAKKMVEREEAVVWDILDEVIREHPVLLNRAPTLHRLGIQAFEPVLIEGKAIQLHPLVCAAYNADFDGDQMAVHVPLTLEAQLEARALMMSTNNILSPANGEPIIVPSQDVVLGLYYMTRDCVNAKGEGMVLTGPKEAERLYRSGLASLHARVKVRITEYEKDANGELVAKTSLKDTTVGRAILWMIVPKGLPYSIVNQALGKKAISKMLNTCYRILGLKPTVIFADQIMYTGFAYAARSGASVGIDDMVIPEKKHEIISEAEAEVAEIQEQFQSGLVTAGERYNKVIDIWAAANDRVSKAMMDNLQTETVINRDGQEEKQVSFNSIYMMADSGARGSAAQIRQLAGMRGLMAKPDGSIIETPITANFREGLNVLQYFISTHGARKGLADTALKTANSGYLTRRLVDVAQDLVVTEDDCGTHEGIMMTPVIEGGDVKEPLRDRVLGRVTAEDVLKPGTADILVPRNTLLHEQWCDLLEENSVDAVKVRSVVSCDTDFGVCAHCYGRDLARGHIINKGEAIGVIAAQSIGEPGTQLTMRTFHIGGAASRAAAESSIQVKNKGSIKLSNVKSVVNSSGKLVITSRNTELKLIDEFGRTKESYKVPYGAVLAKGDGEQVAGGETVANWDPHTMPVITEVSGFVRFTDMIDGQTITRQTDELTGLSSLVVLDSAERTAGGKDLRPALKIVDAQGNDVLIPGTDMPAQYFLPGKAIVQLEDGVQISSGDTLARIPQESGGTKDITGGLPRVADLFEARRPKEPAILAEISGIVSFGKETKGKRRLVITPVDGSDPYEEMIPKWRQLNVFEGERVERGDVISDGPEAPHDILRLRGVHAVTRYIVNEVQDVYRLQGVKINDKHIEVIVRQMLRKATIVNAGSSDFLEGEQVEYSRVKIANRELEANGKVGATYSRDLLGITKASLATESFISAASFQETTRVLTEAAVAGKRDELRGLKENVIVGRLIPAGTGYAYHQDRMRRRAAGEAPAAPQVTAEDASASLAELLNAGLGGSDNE
Sequence of paused elongation complex PEC-161 (E. coli RNAP stalled at C161 of the Bsu-GTR template) (E. coli) (A1AHI0 2-91 limits assumed, chain 4 of 4, further chain): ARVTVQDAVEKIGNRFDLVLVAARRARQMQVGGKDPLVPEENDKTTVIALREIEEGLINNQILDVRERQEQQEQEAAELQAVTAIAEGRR

In the case of “NusA-Cy5 (from UniProt P0AFF6 1-495) (natural protein)”, in assay [1], the koff is 0.81 s⁻¹; the kon was found to be 1.12e+07 M⁻¹ s⁻¹; the kon, fast (fraction 45%) turned out to be 2.34e+07 M⁻¹ s⁻¹; the kon, slow (fraction 55%) stood at 2.29e+06 M⁻¹ s⁻¹. Further, in assay [2], the koff came to 0.47 s⁻¹; the association rate constant (kon) turned out to be 4.16e+06 M⁻¹ s⁻¹; the kon, fast (fraction 50%) came to 7.26e+06 M⁻¹ s⁻¹; the kon, slow (fraction 50%) was found to be 1.38e+06 M⁻¹ s⁻¹.
